These are literature values, as cited in publication PMC4212800.

In the data set the target is CD4 D1-D2 (Homo sapiens) (UniProt P01730).

In general, Kd refers to the equilibrium constant for the complex coming apart. Turning to Ibalizumab, the Kd is 0.0825 nM.
